Measured values as given in patent US20260274955A1 (JANUX THERAPEUTICS, published 2026).

Key:
[1] = molecular target: T1, anti-CD28 Fab (SEQ ID NOs: 202, 203); assay: phage binding ELISA; biotinylated Fab on neutravidin plate;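 also: clonal phage supernatants added to Fab wells pretreated with CD28 antigen or with blocking buffer only, bound phage read out via HRP-linked anti-M13 antibody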
T1 construct: biotinylated and captured on neutravidin coated plates in the phage ELISA
Experimental: (§1) Clonal phage were harvested as crude supernatants and screened via standard ELISAs. […] Prior to the addition of clonal phage, wells were incubated with blocking buffer and CD28 antigen or blocking buffer alone. Without washing or aspirating, clonal phage supernatants were then added to the wells and incubated for a short time. Wells were then washed followed by detection of bound phage using a horse radish conjugated anti-M13 antibody.

[2] = molecular target: T1, anti-CD28 Fab (SEQ ID NOs: 202, 203); assay: phage binding ELISA; Fab wells pre-incubated with CD28 antigen (competitor);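 also: clonal phage supernatants added to wells preincubated with CD28 antigen in blocking buffer versus blocking buffer alone, washed, bound phage read by HRP-conjugated anti-M13 antibody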
Experimental: as §1

[3] = molecular target: Anti-CD28 Fab (SEQ ID NOs: 202, 203); assay: phage binding ELISA on captured Fab;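 also: clonal phage supernatants added briefly to wells pre-incubated with CD28 antigen or with blocking buffer only, then washed, bound phage read by ELISA using HRP-coupled anti-M13 antibody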
Experimental: as §1

[4] = molecular target: Anti-CD28 Fab (SEQ ID NOs: 202, 203); assay: phage binding ELISA on captured Fab; competitor CD28 antigen;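 as to Anti-CD28 Fab signal in the presence of CD28: wells pretreated with CD28 antigen in blocking buffer or buffer only, then clonal phage supernatants added briefly without washing, bound phage detected via horseradish-conjugated anti-M13 antibody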
Experimental: as §1

Anti-CD28 Fab (SEQ ID NOs: 202, 203), sequence (VH, as listed by the source, chain 1 of 2): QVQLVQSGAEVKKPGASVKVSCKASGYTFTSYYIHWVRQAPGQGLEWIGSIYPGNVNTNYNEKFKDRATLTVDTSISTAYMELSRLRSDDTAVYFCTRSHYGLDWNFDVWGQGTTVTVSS
Anti-CD28 Fab (SEQ ID NOs: 202, 203), sequence (VL, as listed by the source, chain 2 of 2): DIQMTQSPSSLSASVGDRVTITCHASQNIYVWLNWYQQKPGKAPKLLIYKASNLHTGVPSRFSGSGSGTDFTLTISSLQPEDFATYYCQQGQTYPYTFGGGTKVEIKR
T1 sequence (VH, as listed by the source, chain 1 of 2): as the sequence (VH, as listed by the source, chain 1 of 2) above
T1 sequence (VL, as listed by the source, chain 2 of 2): as the sequence (VL, as listed by the source, chain 2 of 2) above

B1: Phage-380 (peptide)
peptide: YCDGHSAEYITKCL
Anti-CD28 Fab (SEQ ID NOs: 202, 203) signal [1]: 1.77
Anti-CD28 Fab signal in the presence of CD28 [2]: 0.06

B2: Phage-384 (peptide)
peptide: YCEGHSPQYVQKCL
Anti-CD28 Fab (SEQ ID NOs: 202, 203) signal [1]: 1.77
Anti-CD28 Fab signal in the presence of CD28 [2]: 0.06

B3: Phage-445 (peptide)
peptide: YCAGHLQEYMQKCL
Anti-CD28 Fab (SEQ ID NOs: 202, 203) signal [1]: 1.69
Anti-CD28 Fab signal in the presence of CD28 [2]: 0.07

B4: Phage-442 (peptide)
peptide: YCAGHSPLYMLKCL
Anti-CD28 Fab (SEQ ID NOs: 202, 203) signal [1]: 1.7
Anti-CD28 Fab signal in the presence of CD28 [2]: 0.1

B5: Phage-379 (peptide)
peptide: YCAGHVPEYMAKCL
Anti-CD28 Fab (SEQ ID NOs: 202, 203) signal [1]: 1.78
Anti-CD28 Fab signal in the presence of CD28 [2]: 0.07

B6: Phage-387 (peptide)
peptide: YCAGHLPEYMLKCL
Anti-CD28 Fab (SEQ ID NOs: 202, 203) signal [1]: 1.76
Anti-CD28 Fab signal in the presence of CD28 [2]: 0.09

B7: Phage-370 (peptide)
peptide: YCAGHAEQYMAKCL
Anti-CD28 Fab (SEQ ID NOs: 202, 203) signal [1]: 1.8
Anti-CD28 Fab signal in the presence of CD28 [2]: 0.08

B8: Phage-25 (peptide)
peptide: YCEGHSPEYILKCL
Anti-CD28 Fab signal [3]: 1.75
Anti-CD28 Fab signal in the presence of CD28 [4]: 0.06

B9: Phage-26 (peptide)
peptide: YCEGHRPEYILKCL
Anti-CD28 Fab signal [3]: 1.27
Anti-CD28 Fab signal in the presence of CD28 [4]: 0.06

B10: Phage-93 (peptide)
peptide: YCDGHSPEYILKCL
Anti-CD28 Fab signal [3]: 2.31
Anti-CD28 Fab signal in the presence of CD28 [4]: 0.09

B11: Phage-382 (peptide)
peptide: YCDGLASEYMSKCL
Anti-CD28 Fab (SEQ ID NOs: 202, 203) signal [1]: 1.77
Anti-CD28 Fab signal in the presence of CD28 [2]: 0.05

B12: Phage-369 (peptide)
peptide: YCVGHAPEFMAKCL
Anti-CD28 Fab (SEQ ID NOs: 202, 203) signal [1]: 1.8
Anti-CD28 Fab signal in the presence of CD28 [2]: 0.1

B13: Phage-386 (peptide)
peptide: YCDGHLDEYMEKCL
Anti-CD28 Fab (SEQ ID NOs: 202, 203) signal [1]: 1.76
Anti-CD28 Fab signal in the presence of CD28 [2]: 0.08

B14: Phage-372 (peptide)
peptide: YCDGHLGVYMAKCL
Anti-CD28 Fab (SEQ ID NOs: 202, 203) signal [1]: 1.79
Anti-CD28 Fab signal in the presence of CD28 [2]: 0.07

B15: Phage-381 (peptide)
peptide: YCEGHLDEYMWKCL
Anti-CD28 Fab (SEQ ID NOs: 202, 203) signal [1]: 1.77
Anti-CD28 Fab signal in the presence of CD28 [2]: 0.06

B16: Phage-444 (peptide)
peptide: YCDGHLPVYLEKCL
Anti-CD28 Fab (SEQ ID NOs: 202, 203) signal [1]: 1.69
Anti-CD28 Fab signal in the presence of CD28 [2]: 0.06

B17: Phage-373 (peptide)
peptide: YCDGHTSEYITKCL
Anti-CD28 Fab (SEQ ID NOs: 202, 203) signal [1]: 1.79
Anti-CD28 Fab signal in the presence of CD28 [2]: 0.07

B18: Phage-27 (peptide)
peptide: YCEGHEGIYFWKCL
Anti-CD28 Fab signal [3]: 2.07
Anti-CD28 Fab signal in the presence of CD28 [4]: 0.06

B19: Phage-69 (peptide)
peptide: YCDGHLPEYMAKCL
Anti-CD28 Fab signal [3]: 2.37
Anti-CD28 Fab signal in the presence of CD28 [4]: 0.13

B20: Phage-42 (peptide)
peptide: YCEGHLPEYIQKCL
Anti-CD28 Fab signal [3]: 1.9
Anti-CD28 Fab signal in the presence of CD28 [4]: 0.08

B21: Phage-59 (peptide)
peptide: YCDGHLPQYMAQCL
Anti-CD28 Fab signal [3]: 2.4
Anti-CD28 Fab signal in the presence of CD28 [4]: 0.2

B22: Phage-31 (peptide)
peptide: YCEGHAPEYIWKCL
Anti-CD28 Fab signal [3]: 1.63
Anti-CD28 Fab signal in the presence of CD28 [4]: 0.07

B23: Phage-35 (peptide)
peptide: YCEGHLPEYLAKCL
Anti-CD28 Fab signal [3]: 2.34
Anti-CD28 Fab signal in the presence of CD28 [4]: 0.1

B24: Phage-45 (peptide)
peptide: YCDGHSPIYMWKCL
Anti-CD28 Fab signal [3]: 2.47
Anti-CD28 Fab signal in the presence of CD28 [4]: 0.09

B25: Phage-57 (peptide)
peptide: YCEGHLPEYMAKCL
Anti-CD28 Fab signal [3]: 2.41
Anti-CD28 Fab signal in the presence of CD28 [4]: 0.14

B26: Phage-53 (peptide)
peptide: YCAGHLPEYMDKCL
Anti-CD28 Fab signal [3]: 2.42
Anti-CD28 Fab signal in the presence of CD28 [4]: 0.12

B27: Phage-58 (peptide)
peptide: YCEGHLPEYMFKCL
Anti-CD28 Fab signal [3]: 2.4
Anti-CD28 Fab signal in the presence of CD28 [4]: 0.12

B28: Phage-55 (peptide)
peptide: YCAGHLPQYMAKCL
Anti-CD28 Fab signal [3]: 2.41
Anti-CD28 Fab signal in the presence of CD28 [4]: 0.17

B29: Phage-34 (peptide)
peptide: YCEGHLPEYREKCL
Anti-CD28 Fab signal [3]: 1.96
Anti-CD28 Fab signal in the presence of CD28 [4]: 0.07

B30: Phage-60 (peptide)
peptide: YCEGHLPQYMQKCL
Anti-CD28 Fab signal [3]: 2.39
Anti-CD28 Fab signal in the presence of CD28 [4]: 0.12

B31: Phage-33 (peptide)
peptide: YCEGHLPEYLGKCL
Anti-CD28 Fab signal [3]: 1.23
Anti-CD28 Fab signal in the presence of CD28 [4]: 0.08

B32: Phage-29 (peptide)
peptide: YCEGHAPEYIAKCL
Anti-CD28 Fab signal [3]: 2.15
Anti-CD28 Fab signal in the presence of CD28 [4]: 0.09

B33: Phage-52 (peptide)
peptide: YCDGHLPEYMNKCL
Anti-CD28 Fab signal [3]: 2.43
Anti-CD28 Fab signal in the presence of CD28 [4]: 0.13

B34: Phage-40 (peptide)
peptide: YCEGHLPEYRNKCL
Anti-CD28 Fab signal [3]: 2.38
Anti-CD28 Fab signal in the presence of CD28 [4]: 0.17

B35: Phage-48 (peptide)
peptide: YCAGHAPEYMEKCL
Anti-CD28 Fab signal [3]: 2.45
Anti-CD28 Fab signal in the presence of CD28 [4]: 0.09

B36: Phage-30 (peptide)
peptide: YCEGHAPEYIRKCL
Anti-CD28 Fab signal [3]: 1.63
Anti-CD28 Fab signal in the presence of CD28 [4]: 0.08

B37: Phage-28 (peptide)
peptide: YCEGHLPEYIEKCL
Anti-CD28 Fab signal [3]: 2.06
Anti-CD28 Fab signal in the presence of CD28 [4]: 0.08

B38: Phage-54 (peptide)
peptide: YCDGHSAEHMAKCL
Anti-CD28 Fab signal [3]: 2.41
Anti-CD28 Fab signal in the presence of CD28 [4]: 0.08

B39: Phage-49 (peptide)
peptide: YCDGHSPEYMWKCL
Anti-CD28 Fab signal [3]: 2.44
Anti-CD28 Fab signal in the presence of CD28 [4]: 0.09

B40: Phage-47 (peptide)
peptide: YCDGHLPQYMEKCL
Anti-CD28 Fab signal [3]: 2.47
Anti-CD28 Fab signal in the presence of CD28 [4]: 0.11

B41: Phage-43 (peptide)
peptide: YCEGHLPEYIWKCL
Anti-CD28 Fab signal [3]: 2.32
Anti-CD28 Fab signal in the presence of CD28 [4]: 0.09

B42: Phage-44 (peptide)
peptide: YCEGHAPEYIGKCL
Anti-CD28 Fab signal [3]: 2.1
Anti-CD28 Fab signal in the presence of CD28 [4]: 0.07

B43: Phage-50 (peptide)
peptide: YCDGHLPEYMEKCL
Anti-CD28 Fab signal [3]: 2.44
Anti-CD28 Fab signal in the presence of CD28 [4]: 0.1

B44: Phage-46 (peptide)
peptide: YCEGHAPEYMAKCL
Anti-CD28 Fab signal [3]: 2.47
Anti-CD28 Fab signal in the presence of CD28 [4]: 0.08

B45: Phage-51 (peptide)
peptide: YCEGHLPQYMWKCL
Anti-CD28 Fab signal [3]: 2.44
Anti-CD28 Fab signal in the presence of CD28 [4]: 0.17

B46: Phage-449 (peptide)
peptide: YCEGHSPWYMNKCL
Anti-CD28 Fab (SEQ ID NOs: 202, 203) signal [1]: 1.68
Anti-CD28 Fab signal in the presence of CD28 [2]: 0.06
